Test results taken from article doi:10.1101/756874 (2019).
No end group written: not given here. *: point of attachment. TAMRA = 5-carboxytetramethylrhodamine, CN(C)c1ccc2c(-c3ccc(C(=O)*)cc3C(=O)[O-])c3ccc(=[N+](C)C)cc-3oc2c1

B1: MCL-1 (UniProt:Q07820, residues 168–327, C286S) (domain or fragment)
chain: GSEEEEDELYRQSLEIISRYLREQATGAKDTKPMGRSGATSRKALETLRRVGDGVQRNHETAFQGMLRKLDIKNEDDVKSLSRVMIHVFSDGVTNWGRIVTLISFGAFVAKHLKTINQESSIEPLAESITDVLVRTKRDWLVKQRGWDGFVEFFHVEDLEGG
B2: BAK (UniProt:Q16611, residues 16–185, C166S) (domain or fragment)
chain: EPALPSASEEQVAQDTEEVFRSYVFYRHQQEQEAEGVAAPADPEMVTLPLQPSSTMGQVGRQLAIIGDDINRRYDSEFQTMLQHLQPTAENAYEYFTKIATSLFESGINWGRVVALLGFGYRLALHVYQHGLTGFLGQVTRFVVDFMLHHSIARWIAQRGGWVAALNLGN

Key:
Experiment in all cases: without detergent
[1] = target: MCL-1BH3
[2] = target: BAXBH3
[3] = target: B2
[4] = target: B2; remark: listed apart in the source
[5] = target: B1
[6] = target: B1; remark: listed apart in the source

Kd [1] [mM]	Kd [2] [µM]	Kd [3] [µM]	koff [4] [s⁻¹]	further results	Binder
0.000182	0.071	–	–	koff [1]: 0.52 s⁻¹; koff [2]: 0.613 s⁻¹	B1
5	500	–	–	–	B2
–	–	1000	–	–	{TAMRA}-ALQPSSTMGQVGRQLAIIGDDINRRYDSEFQTMLQ [BAKBH3, TAMRA-labelled 35-residue peptide (UniProt:Q16611, residues 64–98, P64A)]
–	–	230	1400	–	{TAMRA}-SESQEDIIRNIARHLAQVGDSMDRSIPPGLVNGLA [BIDBH3, TAMRA-labelled 35-residue peptide (UniProt:P55957, residues 76–110)]
–	–	220	230	Kd [5]: 0.174 nM; koff [6]: 0.00246 s⁻¹	{TAMRA}-RGEEEQWAREIGAQLRRAADDLNAQYERRRQEEQQ [PUMABH3, TAMRA-labelled 35-residue peptide (UniProt: Q9BXH1, residues 127–161, M144A)]
